This experiment deals with T1, hPIEZO1 C-terminal segment (residues 1592-2521) with N-terminal GFP (human, UniProt Q92508 1592-2521).
T1 construct: PIEZO1, human, residues 1592-2521, second cistron (after the IRES element) of the bicistronic vector hPIEZO1 NtCt; the methods say amplified from amino acid 1591 to the end, the results print 1592 to 2251 and 1591-2251; C-terminus amplified from HekP1; inserted at a SpeI site after the GFP of pIRES2-EGFP, so GFP precedes the segment; also called Ct-EGFP; C-terminal fragment; source: HEK293, …
T1 sequence (looked up): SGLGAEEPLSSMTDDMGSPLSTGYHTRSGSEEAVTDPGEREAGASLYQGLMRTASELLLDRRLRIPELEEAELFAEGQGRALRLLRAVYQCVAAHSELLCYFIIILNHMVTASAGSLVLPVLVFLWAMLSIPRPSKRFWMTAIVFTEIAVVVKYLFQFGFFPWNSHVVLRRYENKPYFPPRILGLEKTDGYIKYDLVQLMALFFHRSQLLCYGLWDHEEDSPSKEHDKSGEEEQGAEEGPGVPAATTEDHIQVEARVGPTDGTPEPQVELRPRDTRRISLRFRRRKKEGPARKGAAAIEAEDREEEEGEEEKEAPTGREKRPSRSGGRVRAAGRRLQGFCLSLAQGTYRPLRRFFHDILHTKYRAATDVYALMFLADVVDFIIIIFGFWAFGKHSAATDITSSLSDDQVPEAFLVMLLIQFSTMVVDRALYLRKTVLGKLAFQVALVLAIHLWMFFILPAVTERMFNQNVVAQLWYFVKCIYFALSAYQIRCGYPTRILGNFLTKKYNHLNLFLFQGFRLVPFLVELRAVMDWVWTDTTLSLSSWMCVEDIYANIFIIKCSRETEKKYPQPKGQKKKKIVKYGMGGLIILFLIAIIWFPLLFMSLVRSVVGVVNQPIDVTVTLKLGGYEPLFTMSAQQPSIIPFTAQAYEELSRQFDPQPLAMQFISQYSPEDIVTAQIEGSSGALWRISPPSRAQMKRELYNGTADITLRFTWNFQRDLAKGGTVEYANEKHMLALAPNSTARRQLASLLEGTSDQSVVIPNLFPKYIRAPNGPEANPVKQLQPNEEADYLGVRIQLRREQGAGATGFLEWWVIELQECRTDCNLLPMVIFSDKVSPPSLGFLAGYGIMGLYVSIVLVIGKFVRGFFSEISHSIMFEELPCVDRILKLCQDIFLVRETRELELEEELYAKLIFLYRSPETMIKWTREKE
Description: FRET or BRET; living HEK293 cells transfected with bicistronic vectors; EGFP and mCherry fusions; FRET ratio = 680 nm emission excited at 480 nm over 680 nm emission excited at 560 nm. The conditions noted are these: partners not purified. A general note: BRET reads energy transfer from a luciferase to a nearby fluorophore.

B1: hPIEZO1 N-terminal segment (residues 1-1591) with mCherry linked at its end (domain or fragment, human, UniProt Q92508 1-1591, looked up)
chain: MEPHVLGAVLYWLLLPCALLAACLLRFSGLSLVYLLFLLLLPWFPGPTRCGLQGHTGRLLRALLGLSLLFLVAHLALQICLHIVPRLDQLLGPSCSRWETLSRHIGVTRLDLKDIPNAIRLVAPDLGILVVSSVCLGICGRLARNTRQSPHPRELDDDERDVDASPTAGLQEAATLAPTRRSRLAARFRVTAHWLLVAAGRVLAVTLLALAGIAHPSALSSVYLLLFLALCTWWACHFPISTRGFSRLCVAVGCFGAGHLICLYCYQMPLAQALLPPAGIWARVLGLKDFVGPTNCSSPHALVLNTGLDWPVYASPGVLLLLCYATASLRKLRAYRPSGQRKEAAKGYEARELELAELDQWPQERESDQHVVPTAPDTEADNCIVHELTGQSSVLRRPVRPKRAEPREASPLHSLGHLIMDQSYVCALIAMMVWSITYHSWLTFVLLLWACLIWTVRSRHQLAMLCSPCILLYGMTLCCLRYVWAMDLRPELPTTLGPVSLRQLGLEHTRYPCLDLGAMLLYTLTFWLLLRQFVKEKLLKWAESPAALTEVTVADTEPTRTQTLLQSLGELVKGVYAKYWIYVCAGMFIVVSFAGRLVVYKIVYMFLFLLCLTLFQVYYSLWRKLLKAFWWLVVAYTMLVLIAVYTFQFQDFPAYWRNLTGFTDEQLGDLGLEQFSVSELFSSILVPGFFLLACILQLHYFHRPFMQLTDMEHVSLPGTRLPRWAHRQDAVSGTPLLREEQQEHQQQQQEEEEEEEDSRDEGLGVATPHQATQVPEGAAKWGLVAERLLELAAGFSDVLSRVQVFLRRLLELHVFKLVALYTVWVALKEVSVMNLLLVVLWAFALPYPRFRPMASCLSTVWTCVIIVCKMLYQLKVVNPQEYSSNCTEPFPNSTNLLPTEISQSLLYRGPVDPANWFGVRKGFPNLGYIQNHLQVLLLLVFEAIVYRRQEHYRRQHQLAPLPAQAVFASGTRQQLDQDLLGCLKYFINFFFYKFGLEICFLMAVNVIGQRMNFLVTLHGCWLVAILTRRHRQAIARLWPNYCLFLALFLLYQYLLCLGMPPALCIDYPWRWSRAVPMNSALIKWLYLPDFFRAPNSTNLISDFLLLLCASQQWQVFSAERTEEWQRMAGVNTDRLEPLRGEPNPVPNFIHCRSYLDMLKVAVFRYLFWLVLVVVFVTGATRISIFGLGYLLACFYLLLFGTALLQRDTRARLVLWDCLILYNVTVIISKNMLSLLACVFVEQMQTGFCWVIQLFSLVCTVKGYYDPKEMMDRDQDCLLPVEEAGIIWDSVCFFFLLLQRRVFLSHYYLHVRADLQATALLASRGFALYNAANLKSIDFHRRIEEKSLAQLKRQMERIRAKQEKHRQGRVDRSRPQDTLGPKDPGLEPGPDSPGGSSPPRRQWWRPWLDHATVIHSGDYFLFESDSEEEEEAVPEDPRPSAQSAFQLAYQAWVTNAQAVLRRRQQEQEQARQEQAGQLPTGGGPSQEVEPAEGPEEAAAGRSHVVQRVLSTAQFLWMLGQALVDELTRWLQEFTRHHGTMSDVLRAERYLLTQELLQGGEVHRGVLDQLYTSQAEATLPGPTEAPNAPSTVS
notes: PIEZO1, human, residues 1-1591, first cistron of the bicistronic vector hPIEZO1 NtCt; also called Nt-mCherry; N-terminal fragment; source: HEK293, transfected with the bicistronic plasmid hPIEZO1 NtCt, in living cells; not shown: mCherry, C-terminal, kept
With B1, the FRET ratio was determined as 3.4.
